Experimental findings from US20050176101 are described below.

The target of series [1] is T1, His-tagged human Abl kinase domain G227-V515 coexpressed with PTP1b phosphatase domain (pET-SPEC BI-PTP Abl G227-V515-X), unphosphorylated.
T1 chain: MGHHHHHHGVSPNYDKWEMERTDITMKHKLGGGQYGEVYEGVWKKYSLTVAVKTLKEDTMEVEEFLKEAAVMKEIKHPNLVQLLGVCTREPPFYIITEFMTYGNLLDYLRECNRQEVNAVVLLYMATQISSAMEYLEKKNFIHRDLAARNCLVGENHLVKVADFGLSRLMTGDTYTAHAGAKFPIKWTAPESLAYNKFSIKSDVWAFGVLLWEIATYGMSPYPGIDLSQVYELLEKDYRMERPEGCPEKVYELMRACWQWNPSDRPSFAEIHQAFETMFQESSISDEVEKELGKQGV

The target of series [2] is His-tagged human c-MET kinase domain constructs (various lengths) coexpressed with PTP1B from pET-N6 BI-PTP, unphosphorylated.

B1: human PTP1b phosphatase domain, residues Met 1 to Gly 283 (protein)
chain: MEMEKEFEQIDKSGSWAAIYQDIRHEASDFPCRVAKLPKNKNRNRYRDVSPFDHSRIKLHQEDNDYINASLIKMEEAQRSYILTQGPLPNTCGHFWEMVWEQKSRGVVMLNRVMEKGSLKCAQYWPQKEEKEMIFEDTNLKLTLISEDIKSYYTVRQLELENLTTQETREILHFHYTTWPDFGVPESPASFLNFLFKVRESGSLSPEHGPVVVHCSAGIGRSGTFCLADTCLLLMDKRKDPSSVDIKKVLLEMRKFRMGLIQTADQLRFSYLAVIEGAKFIMG
Take B1: the “state of phosphorylation detectable with PY20 anti-phospho-Tyr antibody (Western blot)” value in series [1] is “the Abl coexpressed with PTP1B has little or no phosphorylation above background, whereas Abl coexpressed alone is highly phosphorylated”. Moreover, the “state of phosphorylation (methods as described for the Abl kinase domain)” value in series [2] is “When expressed alone the MET was phosphorylated and when coexpressed with PTP1B the MET was unphosphorylated”.
